The values that follow come from publication PMC10148159, “Visualizing the coordination of apurinic/apyrimidinic endonuclease (APE1) and DNA polymerase β during base excision repair”.

Data set [1] addresses T1, APE1 (Homo sapiens, UniProt P27695 1-318). In words: single-molecule TIRF; 2.5 mM EDTA; mean lifetime T2 22.8 s; 50 mM Hepes pH 7.4, 150 mM NaCl, 0.1 mg/ml BSA, 0.8% glucose, 2.5 mM EDTA, ~10 mM Trolox, catalase 0.04 mg/ml, glucose oxidase 1 mg/ml; room temperature; protein 0.1 nM (binary) or 1.5 nM each (ternary). To be noted: protein: recombinant; tags: Cy3 NHS ester dye (about 2.1-2.4 labels per protein); label: 5'-biotin on strand 1 (immobilized); blunt.

Data set [2] concerns the target T2, DNA polymerase beta (Pol β) (Homo sapiens, UniProt P06746 1-335). In words: single-molecule TIRF; 2.5 mM EDTA; mean lifetimes T2 7.4 s, T3 33.7 s; 50 mM Hepes pH 7.4, 150 mM NaCl, 0.1 mg/ml BSA, 0.8% glucose, 2.5 mM EDTA, ~10 mM Trolox, catalase 0.04 mg/ml, glucose oxidase 1 mg/ml; room temperature; protei.
Data set [3] addresses T1, APE1. The experiment in a line: single-molecule TIRF; 2.5 mM EDTA; mean lifetime T2 12.4 s; 50 mM Hepes pH 7.4, 150 mM NaCl, 0.1 mg/ml BSA, 0.8% glucose, 2.5 mM EDTA, ~10 mM Trolox, catalase 0.04 mg/ml, glucose oxidase 1 mg/ml; room temperature; protein 0.1 nM (binary) or 1.5 nM each (ternary). To be noted: protein: recombinant; tags: Cy3 NHS ester dye (about 2.1-2.4 labels per protein); label: 5'-biotin on strand 1 (immobilized); blunt outer ends; nicked.

In data set [4] the target is T1, APE1. The experiment in a line: single-molecule TIRF; 2.5 mM EDTA; mean lifetimes T2 4.3 s, T3 30.9 s; 50 mM Hepes pH 7.4, 150 mM NaCl, 0.1 mg/ml BSA, 0.8% glucose, 2.5 mM EDTA, ~10 mM Trolox, catalase 0.04 mg/ml, glucose oxidase 1 mg/ml; room temperature; protein 0.1 nM (binary) or 1.5 nM each (ternary). To be noted: protein: recombinant; tags: Cy3 NHS ester dye (about 2.1-2.4 labels per protein); label: 5'-biotin on strand 1 (immobilized); blunt outer ends; 1-nt gap opposite G of template.

Data set [5] concerns the target T2, DNA polymerase beta (Pol β). The experiment in a line: single-molecule TIRF; 2.5 mM EDTA; mean lifetime T2 19.8 s; 50 mM Hepes pH 7.4, 150 mM NaCl, 0.1 mg/ml BSA, 0.8% glucose, 2.5 mM EDTA, ~10 mM Trolox, catalase 0.04 mg/ml, glucose oxidase 1 mg/ml; room temperature; protei.

B1: undamaged DNA 25-mer (dsDNA)
DNA 1: TGTGTGGAATACAGTGAGCGCAACG
DNA 2: CGTTGCGCTCACTGTATTCCACACA
With B1, the binding result in the data set with APE1 [1] is listed as “binds”.

B2: 3' nick 25-mer (dsDNA)
DNA 1: TGTGTGGAATACAGTGAGCGCAACG
DNA 2: CGTTGCGCTCAC
DNA 3: TGTATTCCACACA
modifications: 5'-phosphate on 13-mer; 3'-OH on 12-mer
For B2, the binding result (in data set [2]; with APE1 [3]) was “binds” throughout.

B3: 1-nt gap 25-mer (dsDNA)
DNA 1: TGTGTGGAATACAGTGAGCGCAACG
DNA 2: CGTTGCGCTCA
DNA 3: TGTATTCCACACA
modifications: 5'-phosphate on 13-mer
On to B3, for which the binding result (with APE1 [4]; in data set [5]) was “binds” each time.
